Laboratory results as given in FireProtDB (doi:10.1093/protein/14.12.967).
Several values for one entry are separate records, joined by “and”; a condition that tells them apart may be missing. Equal values may be shown once.

B1: Lysozyme C, milk isozyme, P81708 (parent)
chain: KIFSKCELARKLKSMGMDGFHGYSLANWVCMAEYESNFNTQAFNGRNSNGSSDYGIFQLNSKWWCKSNSHSSANACNIMCSKFLDDNIDDDIACAKRVVKDPNGMSAWVAWVKHCKGKDLSKYLASCNL

Variants of: B1
Settings: Canis lupus familiaris, pH 4.5, Thermal, DSC, sodium acetate 50 mM, reversible: yes, structure 1EL1, whole UniProt chain shown

Variant | ddG of mutation (higher = less stable) (66.4 °C) | unfolding enthalpy (calorimetric) (66.4 °C) | unfolding free energy (66.4 °C) | change of melting temperature, mutant - wild type (higher = more stable) (transition: 3) | unfolding enthalpy (calorimetric) (transition: 3)
KIFSKCELARKLKSMGMDGFHGYSLANWVCMAEYESNFNTQAFNGRNSNGSSDYGIFQLNSKWWCKSNSHSSANACNIMCSKFLDDNIDDDIACAKRVVKDPNGMSAWKAWVKHCKGKDLSKYLASCNL | 0.43 kcal/mol | 31.9 kcal/mol | 1.72 kcal/mol | -4.16 °C | 43.8 kcal/mol and 42.8 kcal/mol
KIFSKCELARKLKSMGMDGFHGYSLANWVCMAEYESNFNTQAFNGRNSNGSSDYGLFQLNSKWWCKSNSHSSANACNIMCSKFLDDNIDDDIACAKRVVKDPNGMSAWVAWVKHCKGKDLSKYLASCNL | 0.24 kcal/mol | 31.8 kcal/mol | 1.91 kcal/mol | -2.44 °C | 23.8 kcal/mol and 43.8 kcal/mol
KIFSKCELARKLKSMGMDGFHGYSLANWVCMAEYESNFNTQAFNGRNSNGSSDYGIFQLNSKWWCKSNSHSSANACNIMCSKFLDDNIDDDISCAKRVVKDPNGMSAWVAWVKHCKGKDLSKYLASCNL | 0.26 kcal/mol | 32 kcal/mol | 1.89 kcal/mol | -2.59 °C | 39.6 kcal/mol and 43.8 kcal/mol
KIFSKCELARKLKSMGMDGFGGYSLANWVCMAEYESNFNTQAFNGRNSNGSSDYGIFQLNSKWWCKSNSHSSANACNIMCSKFLDDNIDDDIACAKRVVKDPNGMSAWVAWVKHCKGKDLSKYLASCNL | 0.48 kcal/mol | 29.1 kcal/mol | 1.67 kcal/mol | -3.28 °C | 29.9 kcal/mol and 40.6 kcal/mol
